From publication PMC2920069, “KTN (RCK) Domains Regulate K^+ Channels and Transporters by Controlling the Dimer-Hinge Conformation” (Structure(London, England:1993), 2009)

B1: KefC-CTD:KefF fusion protein (complex, E. coli)
chain: RVIIAGFGRFGQITGRLLLSSGVKMVVLDHDPDHIETLRKFGMKVFYGDATRMDLLESAGAAKAEVLINAIDDPQTNLQLTEMVKEHFPHLQIIARARDVDHYIRLRQAGVEKPERETFEGALKTGRLALESLGLGPYEARERADVFRRFNIQMVEEMAMVENDTKARAAVYKRTSAMLSEIITEDREHLSLIQRHGWQGTEEGKHTGNMADEPETKPSSTSGGLVPRGSSGMILIIYAHPYPHHSHANKRMLEQARTLEGVEIRSLYQLYPDFNIDIAAEQEALSRADLIVWQHPMQWYSIPPLLKLWIDKVFSHGWAYGHGGTALHGKHLLWAVTTGGGESHFEIGAHPGFDVLSQPLQATAIYCGLNWLPPFAMHCTFICDDETLEGQARHYKQRLLEWQEAHHG
notes: synthetic flexible 12-residue linker with a thrombin motif that is not cleaved under the conditions used; KefF, ancillary subunit of the E. coli KefC system, full length; pET-28-derived vector; tag removed with thrombin overnight at 4 °C; also called KefC-CTD/KefF complex; fusion complex; source: E. coli BL21(DE3), purified (Ni-NTA with imidazole gradient, Superdex 200 gel filtration); not shown: …
B2: full-length recombinant KefC (natural protein, E. coli, UniProt P03819 1-620, looked up)
chain: MDSHTLIQALIYLGSAALIVPIAVRLGLGSVLGYLIAGCIIGPWGLRLVTDAESILHFAEIGVVLMLFIIGLELDPQRLWKLRAAVFGCGALQMVICGGLLGLFCMLLGLRWQVAELIGMTLALSSTAIAMQAMNERNLMVTQMGRSAFAVLLFQDIAAIPLVAMIPLLATSSASTTMGAFALSALKVAGALVLVVLLGRYVTRPALRFVARSGLREVFSAVALFLVFGFGLLLEEVGLSMAMGAFLAGVLLASSEYRHALESDIEPFKGLLLGLFFIGVGMSIDFGTLLENPLRIVILLLGFLIIKIAMLWLIARPLQVPNKQRRWFAVLLGQGSEFAFVVFGAAQMANVLEPEWAKSLTLAVALSMAATPILLVILNRLEQSSTEEAREADEIDEEQPRVIIAGFGRFGQITGRLLLSSGVKMVVLDHDPDHIETLRKFGMKVFYGDATRMDLLESAGAAKAEVLINAIDDPQTNLQLTEMVKEHFPHLQIIARARDVDHYIRLRQAGVEKPERETFEGALKTGRLALESLGLGPYEARERADVFRRFNIQMVEEMAMVENDTKARAAVYKRTSAMLSEIITEDREHLSLIQRHGWQGTEEGKHTGNMADEPETKPSS
notes: E. coli KefC glutathione-gated K+ efflux system, full length; Blue native PAGE was done without KefF; Also used here as the wild-type KefC of the efflux experiments (plasmids pSM12 and pKefFKefCHis6 in E. coli MJF335); also called whole KefC channels; source: E. coli, overexpressed, bacterial membranes solubilized with 1.5% dodecylmaltoside

Legend:
[1] = target: the molecule itself; test: SEC-MALS; size exclusion chromatography with in-line MiniDAWN TREOS light scattering and refractive index detection; 50 mM HEPES pH 7.5, 150 mM KCl, 1 mM DTT or TCEP; with and without GSH, S-lactoyl-GSH or N-ethylsuccinimido-S-glutathione and NAD+ or NADH (1 mM)
[2] = target: the molecule itself; test: native gel or EMSA; blue native PAGE (Novex 4-16% BisTris) of membranes solubilized with 1.5% dodecylmaltoside, without KefF; western blot with anti-His6; factor 1.8 for true mass:mobility-based mass

| Protein | stoichiometry N [1] | stoichiometry N [2] |
| --- | --- | --- |
| B1 | 2 |  |
| B2 |  | 2 |
